Measured values as given in US5008241A, “Novel insulin peptides” (Novo Nordisk A/S, priority 1985, dated 1991).

Legend:
[1] = Di- and polymerization products formed on storage at 25 C, HPSEC; format: physicochemical; conditions: 3 Zn++ per hexamer
Experimental: The compositions tested were as follows: 0.24 mM insulin analog, 0.3% /w/v) m-cresol, 1.6% (w/v) glycerol, 0.01 M sodium acetate and 3 Zn^++ per insulin hexamer. The determination was made using HPSEC (high performance size exclusion chromatography).
A reference insulin having Asn^A21 is included for comparison.

[2] = Deamidation products formed on storage at 25° C., pH 3, DISC PAGE analysis; format: physicochemical; conditions: 0.24 mM analog, 3 Zn++ per hexamer
Experimental: Deamidation products formed per month after storage 25 at 25° C. and a pH value of 3.
The compositions tested were as follows: 0.24 mM insulin analog, 0.3% (w/v) m-cresol, 1.6% (w/v) glycerol, 3 Zn^++ per insulin hexamer and 0.01 M sodium acetate to obtain a pH value of 3. The determinations were made using DISC PAGE analysis.

[3] = from Diabetes Care, Vol. 6/Supplement 1 (1983), 4; cited from earlier work

Substance: Arg^B27 Thr^B30 --NH2 human insulin
- Di- and polymerization products formed per month ([1]; pH of formulation 3.0, 0.24 mM analog): 0.15%
- Di- and polymerization products formed per month ([1]; pH of formulation 4.0, 0.24 mM analog): 0.62%
- Di- and polymerization products formed per month ([1]; pH of formulation 5.0, 0.24 mM analog): 1.4%
- Deamidation products formed per month [2]: approx. 10%

Substance: monocomponent procine insulin: monocomponent porcine insulin
- established potency [3]: 28.5 U/mg dry substance
